Test results reported in patent US20260242419A1, “A CYCLIC PEPTIDE FOR TRAPPING INTERLEUKIN-1 BETA” (Merck Sharp & Dohme LLC, priority 2023, published 2026).
Starred links: 1 amine or outer side, 2 acyl side, 3 side chain; linkers in the order of their positions; H or OH if unused. Non-standard residues stand in square brackets, D forms with d. orbOHorPhe4COOH = 4-[(1R,2S)-2-amino-2-carboxy-1-hydroxy-ethyl]benzoic acid, O=C([C@@H](N[*:1])[C@H](O)c1ccc(C(=O)[*:3])cc1)[*:2]; Phe4PyrimOMe = (S)-2-amino-3-(4-(2-methoxypyrimidin-5-yl)phenyl)propanoic acid, COc1ncc(-c2ccc(C[C@H](N[*:1])C(=O)[*:2])cc2)cn1; Phe4ImMe = (S)-2-amino-3-(4-(1-methyl-1H-imidazol-4-yl)phenyl)propanoic acid, Cn1cnc(-c2ccc(C[C@H](N[*:1])C(=O)[*:2])cc2)c1; Phe42ImMe = (S)-2-amino-3-(4-(1-methyl-1H-imidazol-2-yl)phenyl)propanoic acid, Cn1ccnc1-c1ccc(C[C@H](N[*:1])C(=O)[*:2])cc1; dProc3CH24Pal = (2R,3S)-3-(4-pyridylmethyl)pyrrolidine-2-carboxylic acid, O=C([C@H]1[C@@H](Cc2ccncc2)CCN1[*:1])[*:2]; AlaPyrim4CONH2 = (2S)-2-amino-3-(2-carbamoylpyrimidin-5-yl)propanoic acid, NC(=O)c1ncc(C[C@H](N[*:1])C(=O)[*:2])cn1; SbOH4Pal = (2S,3S)-2-amino-3-hydroxy-3-(4-pyridyl)propanoic acid, O=C([C@@H](N[*:1])[C@@H](O[*:3])c1ccncc1)[*:2]; sbOH4Pal = (2S,3S)-2-amino-3-hydroxy-3-(4-pyridyl)propanoic acid, O=C([C@@H](N[*:1])[C@@H](O[*:3])c1ccncc1)[*:2]; Phe4Pyrim = (S)-2-amino-3-(4-(pyrimidin-5-yl)phenyl)propanoic acid, O=C([C@H](Cc1ccc(-c2cncnc2)cc1)N[*:1])[*:2]; RbOH4Pal = (2S,3R)-2-amino-3-hydroxy-3-(4-pyridyl)propanoic acid, O=C([C@@H](N[*:1])[C@H](O[*:3])c1ccncc1)[*:2]; AlaPiperazAc = (S)-3-(4-acetylpiperazin-1-yl)-2-aminopropanoic acid, CC(=O)N1CCN(C[C@H](N[*:1])C(=O)[*:2])CC1; 4PyrimAla = (2S)-2-amino-3-pyrimidin-4-yl-propanoic acid, O=C([C@H](Cc1ccncn1)N[*:1])[*:2]; Ala(2-carboxypyrimidin-5-yl) = N[C@@H](Cc1cnc(C(=O)O)nc1)C(=O)O; Trp(4-Cl)(βS-Me) = C[C@@H](c1c[nH]c2cccc(Cl)c12)[C@H](N)C(=O)O; dPro(4R-(4-pyridylmethyl)) = O=C(O)[C@H]1C[C@@H](Cc2ccncc2)CN1; Trp(βS-Me,4-F) = C[C@@H](c1c[nH]c2cccc(F)c12)[C@H](N)C(=O)O; Bip(4'-COOH) = N[C@@H](Cc1ccc(-c2ccc(C(=O)O)cc2)cc1)C(=O)O; Ala(1-bicyclo(1.1.1)pentyl) = N[C@@H](CC12CC(C1)C2)C(=O)O; Phe(4-(4-pyridyl)) = N[C@@H](Cc1ccc(-c2ccncc2)cc1)C(=O)O; dPro(4R-Bzl(4-F)) = O=C(O)[C@H]1C[C@@H](Cc2ccc(F)cc2)CN1; dPro(3S-(4-F-Bn)) = O=C(O)[C@@H]1NCC[C@@H]1Cc1ccc(F)cc1; 1Nal(3S-Me) = C[C@@H](c1cccc2ccccc12)[C@H](N)C(=O)O; Ala(morpholin-4-yl) = N[C@@H](CN1CCOCC1)C(=O)O; Ala(piperazin-1-yl) = N[C@@H](CN1CCNCC1)C(=O)O; Ala(pyrimidin-5-yl) = N[C@@H](Cc1cncnc1)C(=O)O; Phe(4-COOH) = N[C@@H](Cc1ccc(C(=O)O)cc1)C(=O)O; Bip = N[C@@H](Cc1ccc(-c2ccccc2)cc1)C(=O)O; Pro(cis-4-F) = O=C(O)[C@@H]1C[C@H](F)CN1; Met(O2) = CS(=O)(=O)CC[C@H](N)C(=O)O; Dap(CONH2) = NC(=O)NC[C@H](N)C(=O)O; cisHyp = O=C(O)[C@@H]1C[C@H](O)CN1; d(αMeD) = C[C@@](N)(CC(=O)O)C(=O)O; 4Pal = N[C@@H](Cc1ccncc1)C(=O)O; aThr = C[C@H](O)[C@H](N)C(=O)O; NMeDab = CN[C@@H](CCN)C(=O)O; Dab = NCC[C@H](N)C(=O)O; Aib = CC(C)(N)C(=O)O

Target: Recombinant human IL-1β (BioLegend 579404) (human, UniProt P01584 117-269)
Assay: cell-based or functional assay

Row | Binder | MRC5 IC50 [nM]
1 | cyclo([Bip(4'-COOH)][RbOH4Pal][Phe(4-COOH)]G[Pro(cis-4-F)][Trp(βS-Me,4-F)][Aib]SW[Aib][Ala(pyrimidin-5-yl)]Q[Dab]G[dPro(4R-Bzl(4-F))]) (ring closure inferred) [SEQ ID NO 274] | 0.026
2 | cyclo([Bip][4Pal][Phe(4-COOH)]G[cisHyp][Trp(βS-Me,4-F)][Aib]SW[d(αMeD)][Ala(pyrimidin-5-yl)]Q[Dab]G[dPro(4R-(4-pyridylmethyl))]) (ring closure inferred) [SEQ ID NO 264] | 0.017
3 | cyclo([Phe(4-(4-pyridyl))][4Pal][Phe(4-COOH)]G[Pro(cis-4-F)][Trp(βS-Me,4-F)][Aib]SW[d(αMeD)][Ala(pyrimidin-5-yl)]Q[Dab]G[dPro(3S-(4-F-Bn))]) (ring closure inferred) [SEQ ID NO 283] | 0.016
4 | cyclo(Y[4Pal][Phe(4-COOH)]G[Pro(cis-4-F)][Trp(βS-Me,4-F)][Aib]SW[d(αMeD)][Ala(pyrimidin-5-yl)]Q[Dab]G[dPro(3S-(4-F-Bn))]) (ring closure inferred) [SEQ ID NO 278] | 0.021
5 | cyclo([Phe42ImMe][4Pal][Phe(4-COOH)]G[Pro(cis-4-F)][Trp(βS-Me,4-F)][Aib]SW[d(αMeD)][Ala(pyrimidin-5-yl)]Q[Dab]G[dPro(3S-(4-F-Bn))]) (ring closure inferred) [SEQ ID NO 280] | 0.016
6 | cyclo([Bip(4'-COOH)][4Pal][Phe(4-COOH)]G[Pro(cis-4-F)][Trp(βS-Me,4-F)][Aib]EW[Aib]HQ[Dab]G[dPro(4R-Bzl(4-F))]) (ring closure inferred) [SEQ ID NO 276] | 0.017
7 | cyclo([Bip][4Pal][Phe(4-COOH)]G[Pro(cis-4-F)][Trp(βS-Me,4-F)][Aib]SW[Aib][dD]Q[Dab]G[dPro(4R-(4-pyridylmethyl))]) (ring closure inferred) [SEQ ID NO 265] | 0.022
8 | cyclo([Bip(4'-COOH)][4Pal][Phe(4-COOH)]G[Pro(cis-4-F)][Trp(βS-Me,4-F)][Aib]SW[Aib][SbOH4Pal]Q[Dab]G[dPro(4R-Bzl(4-F))]) (ring closure inferred) [SEQ ID NO 272] | 0.018
9 | cyclo([Bip(4'-COOH)][4Pal][Phe(4-COOH)]G[Pro(cis-4-F)][Trp(βS-Me,4-F)][Aib]SW[Aib][Ala(pyrimidin-5-yl)]Q[Dap(CONH2)]G[dPro(4R-(4-pyridylmethyl))]) (ring closure inferred) [SEQ ID NO 270] | 0.023
10 | cyclo([Bip(4'-COOH)][4Pal][Phe(4-COOH)]G[Pro(cis-4-F)][Trp(βS-Me,4-F)][Aib]SW[d(αMeD)][sbOH4Pal]Q[Dab]G[dPro(3S-(4-F-Bn))]) (ring closure inferred) [SEQ ID NO 263] | 0.017
11 | cyclo([Bip][4Pal][Phe(4-COOH)]G[Pro(cis-4-F)][Trp(βS-Me,4-F)][Aib]SW[Aib][Ala(2-carboxypyrimidin-5-yl)]Q[Dab]G[dPro(4R-(4-pyridylmethyl))]) (ring closure inferred) [SEQ ID NO 269] | 0.014
12 | cyclo([Bip(4'-COOH)][4Pal][Phe(4-COOH)]G[Pro(cis-4-F)][Trp(βS-Me,4-F)][Aib]SW[d(αMeD)][Ala(piperazin-1-yl)]Q[Dab]G[dPro(3S-(4-F-Bn))]) (ring closure inferred) [SEQ ID NO 287] | 0.011
13 | cyclo([Bip(4'-COOH)][4Pal][Phe(4-COOH)]G[Pro(cis-4-F)][Trp(βS-Me,4-F)][Aib]SW[Aib][Met(O2)]Q[Dab]G[dPro(4R-(4-pyridylmethyl))]) (ring closure inferred) [SEQ ID NO 266] | 0.019
14 | cyclo([Phe4F][4Pal][Phe(4-COOH)]G[Pro(cis-4-F)][Trp(βS-Me,4-F)][Aib]SW[d(αMeD)][Ala(pyrimidin-5-yl)]Q[Dab]G[dPro(3S-(4-F-Bn))]) (ring closure inferred) [SEQ ID NO 277] | 0.023
15 | cyclo([Bip(4'-COOH)][4Pal][Phe(4-COOH)]G[Pro(cis-4-F)][Trp(βS-Me,4-F)][Aib]SW[d(αMeD)][Ala(morpholin-4-yl)]Q[Dab]G[dPro(3S-(4-F-Bn))]) (ring closure inferred) [SEQ ID NO 286] | 0.01
16 | cyclo([Bip(4'-COOH)][Ala(1-bicyclo(1.1.1)pentyl)][Phe(4-COOH)]G[Pro(cis-4-F)][Trp(βS-Me,4-F)][Aib]SW[d(αMeD)][4PyrimAla]Q[Dab]G[dProc3CH24Pal]) (ring closure inferred) [SEQ ID NO 284] | 0.015
17 | cyclo([Bip(4'-COOH)][4Pal][Phe(4-COOH)]G[Pro(cis-4-F)][Trp(βS-Me,4-F)][Aib]SW[Aib][RbOH4Pal]Q[Dab]G[dPro(4R-Bzl(4-F))]) (ring closure inferred) [SEQ ID NO 273] | 0.013
18 | cyclo([Bip(4'-COOH)][Ala(1-bicyclo(1.1.1)pentyl)][Phe(4-COOH)]G[Pro(cis-4-F)][Trp(βS-Me,4-F)][Aib]SW[d(αMeD)][4PyrimAla]Q[Dab]G[dPro(4R-(4-pyridylmethyl))]) (ring closure inferred) [SEQ ID NO 285] | 0.013
19 | cyclo([Bip][4Pal][Phe(4-COOH)]G[Pro(cis-4-F)][1Nal(3S-Me)][Aib]SW[d(αMeD)][aThr]Q[Dab]G[dPro(4R-(4-pyridylmethyl))]) (ring closure inferred) [SEQ ID NO 288] | 0.019
20 | cyclo([Bip][4Pal][Phe(4-COOH)]G[Pro(cis-4-F)][Trp(4-Cl)(βS-Me)][Aib]SW[d(αMeD)][aThr]Q[Dab]G[dPro(4R-(4-pyridylmethyl))]) (ring closure inferred) [SEQ ID NO 289] | 0.015
21 | cyclo([Bip(4'-COOH)][4Pal][orbOHorPhe4COOH]G[Pro(cis-4-F)][Trp(βS-Me,4-F)][Aib]SW[Aib][Ala(pyrimidin-5-yl)]Q[Dab]G[dPro(4R-Bzl(4-F))]) (ring closure inferred) [SEQ ID NO 275] | 0.018
22 | cyclo([Phe4PyrimOMe][4Pal][Phe(4-COOH)]G[Pro(cis-4-F)][Trp(βS-Me,4-F)][Aib]SW[d(αMeD)][Ala(pyrimidin-5-yl)]Q[Dab]G[dPro(3S-(4-F-Bn))]) (ring closure inferred) [SEQ ID NO 281] | 0.012
23 | cyclo([Bip(4'-COOH)][4Pal][Phe(4-COOH)]G[Pro(cis-4-F)][Trp(βS-Me,4-F)][Aib]EW[Aib][AlaPiperazAc]QSG[dPro(4R-Bzl(4-F))]) (ring closure inferred) [SEQ ID NO 271] | 0.023
24 | cyclo([Bip(4'-COOH)][4Pal][Phe(4-COOH)]G[Pro(cis-4-F)][Trp(βS-Me,4-F)][Aib]SW[Aib][Ala(pyrimidin-5-yl)]Q[NMeDab]G[dPro(4R-(4-pyridylmethyl))]) (ring closure inferred) [SEQ ID NO 262] | 0.02
25 | cyclo([Phe4Pyrim][4Pal][Phe(4-COOH)]G[Pro(cis-4-F)][Trp(βS-Me,4-F)][Aib]SW[d(αMeD)][Ala(pyrimidin-5-yl)]Q[Dab]G[dPro(3S-(4-F-Bn))]) (ring closure inferred) [SEQ ID NO 282] | 0.014
26 | cyclo([Bip(4'-COOH)][4Pal][Phe(4-COOH)]G[Pro(cis-4-F)][Trp(βS-Me,4-F)][Aib]SW[Aib][AlaPyrim4CONH2]Q[Dab]G[dPro(4R-(4-pyridylmethyl))]) (ring closure inferred) [SEQ ID NO 267] | 0.014
27 | cyclo([Bip(4'-COOH)][4Pal][Phe(4-COOH)]G[Pro(cis-4-F)][Trp(βS-Me,4-F)][Aib]SW[Aib][Ala(2-carboxypyrimidin-5-yl)]Q[Dab]G[dPro(4R-(4-pyridylmethyl))]) (ring closure inferred) [SEQ ID NO 268] | 0.014
28 | cyclo([Phe4ImMe][4Pal][Phe(4-COOH)]G[Pro(cis-4-F)][Trp(βS-Me,4-F)][Aib]SW[d(αMeD)][Ala(pyrimidin-5-yl)]Q[Dab]G[dPro(3S-(4-F-Bn))]) (ring closure inferred) [SEQ ID NO 279] | 0.013
